Results from USRE50618E1, “Anionic-core composition for delivery of therapeutic agents, and methods of making and using the same” (PharmaIN Corporation, priority 2009, dated 2025).
Values joined by “and” are separate entries in the source; they are usually repeats but may differ in a detail not shown here. Equal values may be shown once. Read-outs that look alike come from different tables or passages of the source.

Tests used:
[1] = test system: adenoviral infection; conditions: cited from earlier work
[2] = cited from earlier work; for isoelectric point (pI): stated in the description; for Isoelectric Point: peptide or protein load molecule, Table 7
[3] = test system: bacteria; conditions: cited from earlier work
[4] = rat, in vivo, 10 mg/kg
[5] = Lysostaphin PK study (serum lysostaphin activity assay); type: in vivo; conditions: Sprague Dawley rats, i.v. bolus 12 mg lysostaphin/Kg; lysostaphin 50% of carrier weight
Procedure: Four carriers were selected for PK study. CSPEG106G, HPPEG105G, 20PLPEG1030-DTPA, and 20PLPEG1030-DTPA-SO were loaded with Lysostaphin equivalent to 50% of the carrier weight. These formulations were obtained by dissolving together an appropriate amount of carrier and Lysostaphin in water and incubating for two hours followed by lyophilization. Each lyophilized formulation (including unformulated lysostaphin alone) was dissolved in saline and administered to Sprague Dawley rats (n=4) by slow (at least 1 min) i.v. bolus (12 mg lysostaphin/Kg) via the lateral tail vein. Blood samples were taken from the orbital sinus at 5 m, 15 m, 30 m, 60 m, 120 m, 4 h, 6 h, 24 h, 32 h (30 h), and 48 h and placed in tubes containing Protease Inhibitors (AEBSF, Aprotinin, E-64, EDTA, and Leupeptin). Sera were obtained by centrifugation at 13,000 rpm. All the sera were stored at −80° C. until used in the assay. 100 of serum was used in this assay for each time point. Lysostaphin's activity was measured by activity assay as follow: Stock buffer (10×) was prepared to contain 1M MOPS/10% Tween (by wt.)/5 mM EDTA/pH 7.3. The final reaction mixtures (2000) in black 96-well plate were prepared to contain 5 μg substrate, 100 mM MOPS, 1% Tween20, 0.5 mM EDTA, pH 7.3, and 100 of serum samples. The samples were added last and after addition the wells were mixed and bubbles in the solution was removed using pipette tip wet with ethanol. Fluorescence (Ex485 nm/Em535 nm) increase was monitored for two hours using Chameleon 96-well microplate fluorometer (Bioscan) every 7.5 minutes for 2 hours. The substrate gave fluorescence product when lysostaphin proteolytically cleaved it.

Row | Molecule | isoelectric point (pI) [2] | Isoelectric Point [2] | also measured
1 | ACYCRIPACI-AGERRYGTCI-YQGRLWAFCC [HNP-1] | – | – | reduction of adenoviral infection [1]: more than 95%
2 | Fibroblast growth factor | 8.0-9.0 and 9.6 | – | –
3 | (klaklak)2: synthetic 14 amino acid D-peptide, programmed cell death-inducing sequence (KLAKLAKKLAKLAK; D-amino acids, C-terminal amide) | – | – | concentration that kills bacteria relative to that required to kill eukaryotic cells [3]: 1%
4 | platelet derived growth factor | 8.5-10 | – | –
5 | H-RRRPRPPYLPRPRPPPFFPPRLPPRIPPGFPPRFPPRFP-OH [PR39] | – | 9.96 | level at 24 h [4]: 370 ng/mL; level at 48 h [4]: 30 ng/mL
6 | Heparin-binding EGF: EGF-related growth factor that signals through the EGF receptor and binds heparin | – | 8.56 | –
7 | GLP1: peptide load molecule with isoelectric point 5.4 used in Table 7 | – | 5.4 | –
8 | Lysostaphin: 25-kDa peptidase produced by Staphylococcus simulans, cleaves glycine-glycine bond of Staphylococcus aureus cell wall cross-bridge | 9-10 | 9.56 | AUC0 to last [5]: 64.2 hr (μg/ml); AUC0 to ∞ [5]: 67 hr (μg/ml); C0 [5]: 301000 ng/mL; Mean residence time [5]: 0.984 h; Terminal t1/2 [5]: 1.53 h; isoelectric point (pI) ([2]; listed as lysostaphin): 9.56
9 | Vascular endothelial growth factor | 8.0-9.5 | – | –
10 | erythropoietin without sialic acid: erythropoietin without sialic acid, listed as load molecule | 8.5 | – | –
11 | Nerve growth factor: growth factor listed as basic protein load molecule | 8.5-9.5 | – | –
12 | Interferon gamma: type II interferon with anti-viral and anti-scarring activity (protein, UniProt P01579 24-161, looked up) Interferon gamma: QDPYVKEAENLKKYFNAGHSDVADNGTLFLGILKNWKEESDRKIMQSQIVSFYFKLFKNFKDDQSIQKSVETIKEDMNVKFFNSNKKKRDDFEKLTNYSVTDLNVQRKAIHELIQVMAELSPAAKTGKRKRSQMLFRG | 8.5-9.5 | – | –
